Where a chain is given by its changes, count along the chain named. In names and notes the source's numbering stands.

T1: EsCas13d, nuclease-dead (Eubacterium siraeum, UniProt B0MS50, R295A;H300A;R849A;H854A)
T1 sequence: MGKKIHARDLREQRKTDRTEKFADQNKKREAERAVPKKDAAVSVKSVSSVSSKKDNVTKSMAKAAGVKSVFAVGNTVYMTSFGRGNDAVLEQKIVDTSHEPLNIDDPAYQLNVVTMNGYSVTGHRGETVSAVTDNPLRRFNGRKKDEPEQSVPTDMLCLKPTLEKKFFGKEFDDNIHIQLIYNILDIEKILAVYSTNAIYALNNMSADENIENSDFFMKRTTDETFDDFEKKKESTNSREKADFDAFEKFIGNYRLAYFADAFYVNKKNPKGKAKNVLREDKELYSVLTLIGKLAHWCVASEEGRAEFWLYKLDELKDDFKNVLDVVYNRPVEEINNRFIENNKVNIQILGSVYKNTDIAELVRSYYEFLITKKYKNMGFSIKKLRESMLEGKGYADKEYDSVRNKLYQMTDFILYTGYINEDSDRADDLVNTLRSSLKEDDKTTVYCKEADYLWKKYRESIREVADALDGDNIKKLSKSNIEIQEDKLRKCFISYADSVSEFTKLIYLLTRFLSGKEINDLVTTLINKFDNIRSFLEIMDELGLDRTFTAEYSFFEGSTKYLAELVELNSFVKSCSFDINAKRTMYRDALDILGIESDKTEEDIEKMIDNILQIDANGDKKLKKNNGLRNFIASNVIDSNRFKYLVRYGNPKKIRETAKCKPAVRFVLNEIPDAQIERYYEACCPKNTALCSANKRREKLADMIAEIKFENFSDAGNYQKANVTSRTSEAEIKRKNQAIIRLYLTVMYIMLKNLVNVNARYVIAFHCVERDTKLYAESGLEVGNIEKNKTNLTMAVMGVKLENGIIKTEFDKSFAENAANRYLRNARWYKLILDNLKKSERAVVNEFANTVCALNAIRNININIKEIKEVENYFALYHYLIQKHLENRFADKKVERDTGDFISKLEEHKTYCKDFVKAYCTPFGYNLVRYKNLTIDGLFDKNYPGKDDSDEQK

B1: target 1 A1U,U19A (mixed)
RNA 1: CACCCGUGCAAAAAUGCAGGGGUCUAAAACUGAGCGGAUAACCUCUCUAUGG
RNA 2: GGGAAUGGAUCCACAUCUACGAAUUCGUACCAAAGAGAGGUUAUCCGCUCUCCGAGAUCGGAAGAGCACACGU
B2: target 1 C4U,C7G (mixed)
RNA 1: B1 RNA 1
RNA 2: B1 RNA 2 with A33U, C45G, C48U, U51A
B3: target 1 C4G,C22G (mixed)
RNA 1: B1 RNA 1
RNA 2: B1 RNA 2 with C30G, A33U, C48G, U51A
B4: target 1 U10G,G13A (mixed)
RNA 1: B1 RNA 1
RNA 2: B1 RNA 2 with A33U, G39A, U42G, U51A
B5: target 1 U11C,A14C (mixed)
RNA 1: B1 RNA 1
RNA 2: B1 RNA 2 with A33U, A38C, U41C, U51A
B6: target 1 insU 3' of 20,insU 3' of 18 (mixed)
RNA 1: B1 RNA 1
RNA 2: GGGAAUGGAUCCACAUCUACGAAUUCGUACCAUUAUGAGAGGUUAUCCGCUCACCGAGAUCGGAAGAGCACACGU
B7: target 1 C6U,G15C (mixed)
RNA 1: B1 RNA 1
RNA 2: B1 RNA 2 with A33U, G37C, C46U, U51A
B8: target 1 insA 3' of 17,insU 3' of 1 (mixed)
RNA 1: B1 RNA 1
RNA 2: GGGAAUGGAUCCACAUCUACGAAUUCGUACCAUAGAAGAGGUUAUCCGCUCAUCCGAGAUCGGAAGAGCACACGU
B9: target 1 insC 3' of 13,insC 3' of 3 (mixed)
RNA 1: B1 RNA 1
RNA 2: B8 RNA 2 with A37G, G38A, A39G, G40C, A52C, U53A
B10: target 1 G15A,G17A (mixed)
RNA 1: B1 RNA 1
RNA 2: B1 RNA 2 with A33U, G35A, G37A, U51A
B11: target 1 insC 3' of 22,insU 3' of 21 (mixed)
RNA 1: B1 RNA 1
RNA 2: B6 RNA 2 with A32C, U34A, A35U, U36A
B12: target 1 insA 3' of 22,insG 3' of 4 (mixed)
RNA 1: B1 RNA 1
RNA 2: GGGAAUGGAUCCACAUCUACGAAUUCGUACACAUAGAGAGGUUAUCCGCGUCACCGAGAUCGGAAGAGCACACGU
B13: target 1 insG 3' of 16,insG 3' of 6 (mixed)
RNA 1: B1 RNA 1
RNA 2: B8 RNA 2 with A37G, C49G, U50C, C51U, A52C, U53A
B14: target 1 A9U,G17A (mixed)
RNA 1: B1 RNA 1
RNA 2: B1 RNA 2 with A33U, G35A, A43U, U51A
B15: target 1 insU 3' of 20,insU 3' of 4 (mixed)
RNA 1: B1 RNA 1
RNA 2: B12 RNA 2 with A31C, C32A, A33U, G50U
B16: target 1 insG 3' of 20,insA 3' of 11 (mixed)
RNA 1: B1 RNA 1
RNA 2: B6 RNA 2 with U33G, U36G, G37A, A38G, G39A, A40G, G42U, U43A
B17: target 1 insC 3' of 9,insU 3' of 4 (mixed)
RNA 1: B1 RNA 1
RNA 2: B8 RNA 2 with A37G, G38A, A39G, G41U, U43A, A44C, C51U, A52C, U53A
B18: target 1 insA 3' of 17,insG 3' of 1 (mixed)
RNA 1: B1 RNA 1
RNA 2: B8 RNA 2 with U53G
B19: target 1 insG 3' of 7,insU 3' of 1 (mixed)
RNA 1: B1 RNA 1
RNA 2: B8 RNA 2 with A37G, G38A, A39G, G41U, U43A, A44U, U45C, C46G
B20: target 1 C4G,C7A (mixed)
RNA 1: B1 RNA 1
RNA 2: B1 RNA 2 with A33U, C45A, C48G, U51A
B21: target 1 C7A,A14G (mixed)
RNA 1: B1 RNA 1
RNA 2: B1 RNA 2 with A33U, A38G, C45A, U51A
B22: target 1 C2A,U3A (mixed)
RNA 1: B1 RNA 1
RNA 2: B1 RNA 2 with A33U, U49A, C50A, U51A
B23: target 1 insA 3' of 17,insA 3' of 2 (mixed)
RNA 1: B1 RNA 1
RNA 2: B8 RNA 2 with U53A
B24: target 1 insG 3' of 16,insC 3' of 3 (mixed)
RNA 1: B1 RNA 1
RNA 2: B8 RNA 2 with A37G, A52C, U53A
B25: target 1 insU 3' of 15,insU 3' of 6 (mixed)
RNA 1: B1 RNA 1
RNA 2: B8 RNA 2 with A37G, G38U, G48U, C49G, U50C, C51U, A52C, U53A
B26: target 1 insU 3' of 22,insG 3' of 2 (mixed)
RNA 1: B1 RNA 1
RNA 2: B12 RNA 2 with A31U, G50U, U51C, C52G
B27: target 1 A9G,C21A (mixed)
RNA 1: B1 RNA 1
RNA 2: B1 RNA 2 with C31A, A33U, A43G, U51A
B28: target 1 C4G,A18C (mixed)
RNA 1: B1 RNA 1
RNA 2: B1 RNA 2 with A33U, A34C, C48G, U51A
B29: target 1 U3C,G5C (mixed)
RNA 1: B1 RNA 1
RNA 2: B1 RNA 2 with A33U, G47C, U49C, U51A
B30: target 1 insA 3' of 17,insC 3' of 1 (mixed)
RNA 1: B1 RNA 1
RNA 2: B8 RNA 2 with U53C
B31: target 1 U3A,U19G (mixed)
RNA 1: B1 RNA 1
RNA 2: B1 RNA 2 with A33G, U49A, U51A
B32: target 1 insA 3' of 15,insC 3' of 3 (mixed)
RNA 1: B1 RNA 1
RNA 2: B8 RNA 2 with A37G, G38A, A52C, U53A
B33: target 1 insU 3' of 21,insA 3' of 19 (mixed)
RNA 1: B1 RNA 1
RNA 2: B6 RNA 2 with A32U, U33A, U36A
B34: target 1 insU 3' of 17,insC 3' of 10 (mixed)
RNA 1: B1 RNA 1
RNA 2: B6 RNA 2 with U34A, A35G, G37A, A38G, G39A, A40G, G42U, U44C

For this data set, the target named is T1, EsCas13d, nuclease-dead. Kind of data set: crRNA (strand 1, pre-loaded); Mg2+; 40 mM Tris-HCl pH 7.5, 150 mM NaCl, 6 mM MgCl2, 1 mM DTT, 0.1% Tween-20, 0.2 mg/ml BSA; 25 C; 10 min per concentration, then washed. The note with it: tags: His6-TwinStrep-SUMO cleaved; N-terminal SNAP kept (SNAP-Surface 488); label: 3' end held by stalled T7 RNA polymerase.
For B1, the Kd (in general, the constant that tells how readily two partners part at equilibrium) worked out at 29 ± 4 nM.

B2 returned a Kd of 10.4 ± 0.4 nM.

B3 displayed a dissociation constant Kd of 16.1 ± 2.3 nM.

Turning to B4, the dissociation constant (Kd) turned out to be 42 ± 15 nM.

Molecule B5 had a Kd of 86 ± 22 nM.

In turn, B6 showed a Kd of 33 ± 5 nM.

Molecule B7 had a dissociation constant Kd of 62 ± 7 nM.

In turn, B8 returned a Kd of 18.5 ± 1.9 nM.

For B9, the dissociation constant (Kd) was 13.8 ± 0.7 nM.

B10 registered a Kd of 80 ± 15 nM.

Molecule B11 yielded a Kd of 17.1 ± 1 nM.

B12 showed a Kd of 9.6 ± 0.6 nM.

Molecule B13 showed a dissociation constant Kd of 24.3 ± 1.9 nM.

Consider B14, for which the dissociation constant (Kd) was 41 ± 5 nM.

As for B15, the Kd was 10.6 ± 1.2 nM.

B16 returned a dissociation constant Kd of 75 ± 33 nM.

Molecule B17 showed a Kd of 9.2 ± 0.6 nM.

The molecule B18 returned an equilibrium dissociation constant (Kd) of 17.6 ± 1.7 nM.

As for B19, binding was put at a Kd of 7.3 ± 0.5 nM.

Regarding B20, the Kd was determined as 7.1 ± 0.4 nM.

Molecule B21 showed a dissociation constant (Kd) of 15.6 ± 0.6 nM.

B22 yielded a dissociation constant Kd of 10 ± 0.8 nM.

Consider B23, for which the affinity, expressed as Kd, was 13.8 ± 0.7 nM.

With B24, the Kd was 12.4 ± 0.6 nM.

Turning to B25, the Kd is 35.6 ± 3.2 nM.

The molecule B26 gave a Kd of 29.1 ± 1.8 nM.

As for B27, binding was characterised by a dissociation constant (Kd) of 36 ± 4 nM.

In the case of B28, the dissociation constant (Kd) worked out at 44 ± 7 nM.

The molecule B29 showed an equilibrium dissociation constant (Kd) of 6.3 ± 0.7 nM.

In the case of B30, binding was put at a Kd of 12.2 ± 1.2 nM.

In turn, B31 showed a Kd of 50 ± 5 nM.

B32 showed a Kd of 10.1 ± 1.3 nM.

For B33, the dissociation constant (Kd) is 55 ± 10 nM.

As for B34, the Kd was approximately 50 nM.
